We go through five substances from patent publication US20200123233A1.

The target of experiment [1] is F protein of RSV A-2 (human respiratory syncytial virus, strain A-2) (UniProt P03420). The experiment is described as follows: cell-based or functional assay.
Experiment [2] has as its target F protein of RSV B-1 (human respiratory syncytial virus, strain B-1) (UniProt P13843). The experiment is described as follows: cell-based or functional assay.
Experiment [3] concerns the target F protein of RSV Long (RSV LONG M-2) (human respiratory syncytial virus, strain Long) (UniProt P12568). The experiment is described as follows: cell-based or functional assay.
Experiment [4] addresses FTM-NN (membrane anchorless form of the Long fusion protein, 70 kDa) (human respiratory syncytial virus, strain Long) (UniProt P12568). The experiment is described as follows: SPR (Biacore), FTM-NN immobilised. (SPR reads the build-up and loss of mass on a sensor chip optically.)
Experiment [5] shares this target.
Experiment [6] deals with F protein of hRSV strain B-1 (human respiratory syncytial virus, strain B-1 (ATCC VR-1580)) (UniProt P13843). The experiment is described as follows: cell-based or functional assay.
Experiment [7] deals with F protein of hRSV strain Long (human respiratory syncytial virus, strain Long (ATCC VR-26)) (UniProt P12568). The experiment is described as follows: cell-based or functional assay.

What is called Kd is the free concentration of one partner at which half of the binding sites on the other are occupied at equilibrium, for simple one-to-one binding. Broadly, the koff is the first-order rate constant of dissociation. Low readings indicate slow dissociation, high ones fast dissociation. One may read the kon as the rate constant with which the complex forms. A high value points to faster complex formation. For the substance “Synagis® (Palivizumab, MedImmune, humanized monoclonal antibody)”, in experiment [1], the RSV neutralization IC50 (nM) (n = 2), A-2 worked out at 2.5 nM. Further, the RSV neutralization IC50 (nM) (n = 2), B1 in experiment [2] is 1.7 nM. In addition, the RSV neutralization IC50 (nM) (n = 2), Long in experiment [3] is 4 nM. In experiment [4], this substance gave a Kd of 0.64 nM, a koff of 0.00018 s⁻¹ and a kon of 280000 M⁻¹ s⁻¹.

The IC50 is the concentration at which inhibition is half-maximal. A low value points to higher potency. In experiment [5], Synagis Fab gave an IC50 of 0.597 nM.

The substance “Numax Fab (Motavizumab or MEDI-524; WO 06/050166)” showed an IC50 in experiment [5] of 0.086 nM.

For the substance 101F Fab (WO 06/050280), the IC50 in experiment [5] was 1.12 nM.

Regarding “Synagis (Palivizumab, MedImmune, humanized monoclonal antibody)”, in experiment [6], the Neutralization IC50 (nM), B-1 (first assay) was 2.1 nM and the Neutralization IC50 (nM), B-1 (second assay) came out at 2.9 nM. In addition, in experiment [7], the Neutralization IC50 (nM), Long (first assay) turned out to be 7.3 nM and the Neutralization IC50 (nM), Long (second assay) stood at 6 nM.
